{"source": "patent US20250145673A1", "about": "(AFFILOGIC, published 2025)", "binders": {"B1": {"name": "polypeptide comprising the amino acid sequence of SEQ ID NO: 33 (designed binder)", "chain": "MVKVKFAATGEEKEVETSKIANVYRVGKDVLFSYDDQGKIGWGYVSEKDAPKELLDLLARAEREK"}, "B2": {"name": "polypeptide comprising the amino acid sequence of SEQ ID NO: 34 (designed binder)", "chain": "B1 chain with A7D, A21S, N22A, V26T"}, "B3": {"name": "polypeptide having the amino acid sequence of SEQ ID NO: 27 (designed binder)", "chain": "MVKVKFEATGEEKEVDTSKIYQVYRSGKEVLFTYDDNGKTGWGYVSEKDAPKELLDMLARAEREK", "notes": "Sac7d variant (Nanofitin); also called parental clone of cluster 6; Nanofitin"}, "B4": {"name": "Fab NF-F (Fab fusion protein comprising SEQ ID NO: 63 and SEQ ID NO: 35) (other)", "heavy": "EVQLVESGGGLVQPGGSLRLSCAASGYDFTHYGMNWVRQAPGKGLEWVGWINTYTGEPTYAADFKRRFTFSLDTSKSTAYLQMNSLRAEDTAVYYCAKYPYYYGTSHWYFDVWGQGTLVTVSSASTKGPSVFPLAPSSKSTSGGTAALGCLVKDYFPEPVTVSWNSGALTSGVHTFPAVLQSSGLYSLSSVVTVPSSSLGTQTYICNVNHKPSNTKVDKKVEPKSCDKTHLGSGGSGSAGSGSGGSVKVKFVFSGEEKEVETSKIKWVLRWGKAVGFKYDDQGKIGYGFVAEKDAPKELLDLLARAEREKGSGGSGSAGSGSGGSVKVKFDATGEEKEVETSKISAVYRTGKDVLFSYDDQGKIGWGYVSEKDAPKELLDLLARAERE", "light": "not shown"}, "B5": {"name": "Fab NF-H (Fab fusion protein comprising SEQ ID NO: 63 and SEQ ID NO: 62) (other)", "heavy": "B4 heavy", "light": "not shown"}, "B6": {"name": "Fab NF-J (Fab fusion protein comprising SEQ ID NO: 58 and SEQ ID NO: 62) (other)", "heavy": "EVQLVESGGGLVQPGGSLRLSCAASGYDFTHYGMNWVRQAPGKGLEWVGWINTYTGEPTYAADFKRRFTFSLDTSKSTAYLQMNSLRAEDTAVYYCAKYPYYYGTSHWYFDVWGQGTLVTVSSASTKGPSVFPLAPSSKSTSGGTAALGCLVKDYFPEPVTVSWNSGALTSGVHTFPAVLQSSGLYSLSSVVTVPSSSLGTQTYICNVNHKPSNTKVDKKVEPKSCDKTHLGSGGSGSAGSGSGGSVKVKFDATGEEKEVETSKISAVYRTGKDVLFSYDDQGKIGWGYVSEKDAPKELLDLLARAERE", "light": "not shown"}, "B7": {"name": "Fab NF-I (Fab fusion protein comprising SEQ ID NO: 36 and SEQ ID NO: 60) (other)", "heavy": "EVQLVESGGGLVQPGGSLRLSCAASGYDFTHYGMNWVRQAPGKGLEWVGWINTYTGEPTYAADFKRRFTFSLDTSKSTAYLQMNSLRAEDTAVYYCAKYPYYYGTSHWYFDVWGQGTLVTVSSASTKGPSVFPLAPSSKSTSGGTAALGCLVKDYFPEPVTVSWNSGALTSGVHTFPAVLQSSGLYSLSSVVTVPSSSLGTQTYICNVNHKPSNTKVDKKVEPKSCDKTHL", "light": "not shown"}, "B8": {"name": "Fab NF-E (Fab fusion protein comprising SEQ ID NO: 59 and SEQ ID NO: 57) (other)", "heavy": "EVQLVESGGGLVQPGGSLRLSCAASGYDFTHYGMNWVRQAPGKGLEWVGWINTYTGEPTYAADFKRRFTFSLDTSKSTAYLQMNSLRAEDTAVYYCAKYPYYYGTSHWYFDVWGQGTLVTVSSASTKGPSVFPLAPSSKSTSGGTAALGCLVKDYFPEPVTVSWNSGALTSGVHTFPAVLQSSGLYSLSSVVTVPSSSLGTQTYICNVNHKPSNTKVDKKVEPKSCDKTHLGSGGSGSAGSGSGGSVKVKFVFSGEEKEVETSKIKWVLRWGKAVGFKYDDQGKIGYGFVAEKDAPKELLDLLARAERE", "light": "not shown", "notes": "Signal peptide cleaved off prior to secretion"}, "B9": {"name": "Fab NF-G (Fab fusion protein comprising SEQ ID NO: 61 and SEQ ID NO: 60) (other)", "heavy": "EVQLVESGGGLVQPGGSLRLSCAASGYDFTHYGMNWVRQAPGKGLEWVGWINTYTGEPTYAADFKRRFTFSLDTSKSTAYLQMNSLRAEDTAVYYCAKYPYYYGTSHWYFDVWGQGTLVTVSSASTKGPSVFPLAPSSKSTSGGTAALGCLVKDYFPEPVTVSWNSGALTSGVHTFPAVLQSSGLYSLSSVVTVPSSSLGTQTYICNVNHKPSNTKVDKKVEPKSCDKTHLGSGGSGSAGSGSGGSVKVKFDATGEEKEVETSKISAVYRTGKDVLFSYDDQGKIGWGYVSEKDAPKELLDLLARAEREKGSGGSGSAGSGSGGSVKVKFVFSGEEKEVETSKIKWVLRWGKAVGFKYDDQGKIGYGFVAEKDAPKELLDLLARAERE", "light": "not shown"}}, "note": "Substitutions are numbered along the chain they refer to.", "data": [{"target": "T1, complement component 3 (C3) (UniProt P01024 23-1663)", "T1 construct": "Purified bought protein; native C3 is a disulfide-linked two-chain protein made from one precursor", "T1 sequence (P01024 23-1663 limits assumed)": "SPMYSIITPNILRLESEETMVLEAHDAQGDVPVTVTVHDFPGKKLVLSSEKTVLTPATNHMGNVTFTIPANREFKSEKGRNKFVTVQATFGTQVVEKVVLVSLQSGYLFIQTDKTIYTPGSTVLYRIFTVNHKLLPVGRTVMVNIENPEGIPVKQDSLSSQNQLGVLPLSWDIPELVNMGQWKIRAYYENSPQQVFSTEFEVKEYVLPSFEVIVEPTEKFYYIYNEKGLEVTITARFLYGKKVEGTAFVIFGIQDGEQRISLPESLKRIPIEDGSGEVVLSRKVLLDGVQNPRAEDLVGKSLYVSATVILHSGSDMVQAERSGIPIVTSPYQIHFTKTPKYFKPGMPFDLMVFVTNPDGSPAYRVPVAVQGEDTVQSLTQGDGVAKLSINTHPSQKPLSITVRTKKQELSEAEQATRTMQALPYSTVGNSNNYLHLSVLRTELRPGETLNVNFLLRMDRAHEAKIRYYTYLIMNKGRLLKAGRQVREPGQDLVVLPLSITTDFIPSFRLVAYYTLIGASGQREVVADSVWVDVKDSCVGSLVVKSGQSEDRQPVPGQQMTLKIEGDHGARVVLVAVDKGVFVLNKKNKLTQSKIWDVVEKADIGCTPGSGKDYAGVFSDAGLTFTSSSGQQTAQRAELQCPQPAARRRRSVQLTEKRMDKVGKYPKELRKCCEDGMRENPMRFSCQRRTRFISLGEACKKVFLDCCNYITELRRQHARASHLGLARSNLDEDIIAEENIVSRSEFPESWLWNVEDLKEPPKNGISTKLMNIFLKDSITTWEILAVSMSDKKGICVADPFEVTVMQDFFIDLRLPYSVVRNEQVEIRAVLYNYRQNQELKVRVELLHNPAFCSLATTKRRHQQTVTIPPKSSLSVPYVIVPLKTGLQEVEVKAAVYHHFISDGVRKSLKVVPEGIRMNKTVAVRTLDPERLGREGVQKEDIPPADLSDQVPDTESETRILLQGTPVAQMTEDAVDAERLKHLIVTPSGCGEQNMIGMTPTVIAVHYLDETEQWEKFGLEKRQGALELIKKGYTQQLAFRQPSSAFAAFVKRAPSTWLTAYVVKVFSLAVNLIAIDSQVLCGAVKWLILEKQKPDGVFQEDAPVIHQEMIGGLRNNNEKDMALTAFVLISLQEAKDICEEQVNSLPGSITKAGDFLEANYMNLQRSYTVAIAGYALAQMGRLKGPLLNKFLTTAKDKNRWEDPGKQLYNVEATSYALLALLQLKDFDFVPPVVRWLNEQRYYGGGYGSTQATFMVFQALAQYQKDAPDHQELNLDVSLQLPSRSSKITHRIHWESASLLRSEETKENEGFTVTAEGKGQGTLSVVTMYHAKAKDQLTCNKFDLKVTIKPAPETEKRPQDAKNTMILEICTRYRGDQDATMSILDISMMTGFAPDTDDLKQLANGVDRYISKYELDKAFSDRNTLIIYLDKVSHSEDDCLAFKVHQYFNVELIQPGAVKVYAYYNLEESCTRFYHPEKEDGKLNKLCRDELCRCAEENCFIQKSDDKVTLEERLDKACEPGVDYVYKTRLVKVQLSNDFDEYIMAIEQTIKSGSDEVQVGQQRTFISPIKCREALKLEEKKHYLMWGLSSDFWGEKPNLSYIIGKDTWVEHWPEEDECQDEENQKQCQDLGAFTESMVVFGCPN", "assay": "ITC", "units": {"Kd": "nM"}, "values": [{"binder": "B1", "Kd": 1.9}, {"binder": "B2", "Kd": 1.3}]}, {"target": "T1, complement component 3 (C3)", "assay": "ITC; ITC, not SPR", "units": {"Kd": "nM"}, "values": [{"binder": "B3", "Kd": 2.1}]}, {"target": "T1, complement component 3 (C3)", "assay": "cell-based or functional assay", "units": {"IC50 (nM) Alternative (ELISA-based complement activation assay)": "nM", "IC50 (nM) Classical (ELISA-based complement activation assay)": "nM"}, "values": [{"binder": "B3", "IC50 (nM) Alternative (ELISA-based complement activation assay)": 700, "IC50 (nM) Classical (ELISA-based complement activation assay)": 743}, {"binder": "B1", "IC50 (nM) Alternative (ELISA-based complement activation assay)": 447, "IC50 (nM) Classical (ELISA-based complement activation assay)": 63}, {"binder": "B2", "IC50 (nM) Alternative (ELISA-based complement activation assay)": 286, "IC50 (nM) Classical (ELISA-based complement activation assay)": 79}]}, {"target": "T1, complement component 3 (C3)", "assay": "cell-based or functional assay", "remark": "another data set of the same source", "units": {"IC50 (nM) Alternative Pathway (Wieslab® assay)": "nM", "IC50 (nM) Classical Pathway (Wieslab® assay)": "nM"}, "values": [{"binder": "B4", "IC50 (nM) Alternative Pathway (Wieslab® assay)": 273, "IC50 (nM) Classical Pathway (Wieslab® assay)": 78}, {"binder": "B5", "IC50 (nM) Alternative Pathway (Wieslab® assay)": 123, "IC50 (nM) Classical Pathway (Wieslab® assay)": 47}, {"binder": "B6", "IC50 (nM) Alternative Pathway (Wieslab® assay)": 121, "IC50 (nM) Classical Pathway (Wieslab® assay)": 48}, {"binder": "B7", "IC50 (nM) Alternative Pathway (Wieslab® assay)": 170, "IC50 (nM) Classical Pathway (Wieslab® assay)": 63}, {"binder": "B8", "IC50 (nM) Alternative Pathway (Wieslab® assay)": 246, "IC50 (nM) Classical Pathway (Wieslab® assay)": 65}]}, {"target": "T1, complement component 3 (C3)", "assay": "ITC, binder titrated into target", "units": {"-TΔS": "kcal/mol", "Kd": "nM", "ΔG": "kcal/mol", "ΔH": "kcal/mol"}, "values": [{"binder": "B3", "-TΔS": 23.4, "Kd": 2.1, "N": 0.98, "ΔG": -11.8, "ΔH": -35.2}, {"binder": "B1", "-TΔS": 6.6, "Kd": 1.9, "N": 0.94, "ΔG": -11.9, "ΔH": -18.5}, {"binder": "B2", "-TΔS": 16.7, "Kd": 1.3, "N": 0.85, "ΔG": -12.1, "ΔH": -28.8}]}, {"target": "T1, complement component 3 (C3)", "assay": "ITC, polypeptide titrated into C3; fit box in the lower panel", "units": {"Ka": "M⁻¹"}, "values": [{"binder": "B3", "Ka": "4.74e+08"}]}, {"target": "T1, complement component 3 (C3)", "assay": "ITC, polypeptide titrated into C3; fit box in the lower panel", "remark": "another data set of the same source", "units": {"Ka": "M⁻¹"}, "values": [{"binder": "B1", "Ka": "5.36e+08"}]}, {"target": "human serum albumin (HSA) (human, UniProt P02768 25-609)", "sequence (P02768 25-609 limits assumed)": "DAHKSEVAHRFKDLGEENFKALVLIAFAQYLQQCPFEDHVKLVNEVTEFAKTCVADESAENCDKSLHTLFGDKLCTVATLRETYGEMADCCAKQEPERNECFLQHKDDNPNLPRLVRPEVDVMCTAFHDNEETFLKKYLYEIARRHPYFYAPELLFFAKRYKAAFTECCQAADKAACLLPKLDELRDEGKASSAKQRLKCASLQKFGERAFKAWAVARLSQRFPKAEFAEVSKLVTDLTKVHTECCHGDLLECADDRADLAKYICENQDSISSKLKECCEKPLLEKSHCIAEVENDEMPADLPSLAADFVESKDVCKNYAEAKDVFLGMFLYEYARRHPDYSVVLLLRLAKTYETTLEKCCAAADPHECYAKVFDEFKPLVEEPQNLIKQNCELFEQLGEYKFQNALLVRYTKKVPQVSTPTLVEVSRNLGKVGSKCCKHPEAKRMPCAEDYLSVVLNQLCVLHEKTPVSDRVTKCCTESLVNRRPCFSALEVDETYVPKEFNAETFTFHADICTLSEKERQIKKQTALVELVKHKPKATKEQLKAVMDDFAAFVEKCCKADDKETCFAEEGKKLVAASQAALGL", "assay": "SPR, HSA amine-coupled to chip, single cycle kinetics, 1:1 Langmuir fit", "protocol": "C3, VEGF, and HSA were placed onto Spots B, C, and D, respectively, across all 8 channels to test for the binding of the supplied analytes. Spot A was used as a reference spot. The conditioned biosensor chip was chemically activated with EDC/NHS. Ligands were then injected onto the activated surface to allow for immobilization. After immobilization, 1 M ethanolamine was injected to block any remaining reactive carboxyl groups in the carboxymethylated dextran surface.\n(§1) In summary, ligands were immobilized under the following conditions: 25° C. on a Sierra Sensors HCA (CM5), Running Buffer of PBST (10 mM Phosphate Buffer pH 7.4, 150 mM NaCl, 0.05% Tween-20; pH 7.4), amine coupling Immobilization Buffer of 10 mM NaOAc pH 5.0, activation with EDC/NHS 7 minutes, immobilization for 2 minutes, and blocking with 1 M ethanolamine for 7 minutes.\n(§2) An 8-point, 3-fold serial dilution assay was performed in duplicate for the Fab fusion proteins described in Example 8 starting at 100 nM. Sensorgrams were analyzed using Sierra Sensors Analyzer with a double reference to determine the interaction parameters ka, kd, and KD. The reference channel was first subtracted from the ligand channel as the first reference. The internal blank injections were set to closest blank after injection based on the method. The kd was calculated for the top concentration by fitting the off-rate part of the curve. The kd was then set to global constant for fitting rest of the curves. Rmax was fit locally for each individual curve since the number of available binding sites changed after each injection. Binding data was fit to a 1:1 Langmuir model.", "units": {"Kd": "nM"}, "values": [{"binder": "B4", "Kd": 90.6}, {"binder": "B5", "Kd": 0.1}, {"binder": "B9", "Kd": 16.9}, {"binder": "B6", "Kd": 16.9}, {"binder": "B7", "Kd": 8.9}, {"binder": "B8", "Kd": 3}]}, {"target": "T1, complement component 3 (C3)", "assay": "SPR, target amine-coupled to chip, single cycle kinetics, 1:1 Langmuir fit", "protocol": "as §1, with “pH 4.0,” for “pH 5.0,”, “EDC/NHS 6” for “EDC/NHS 7”, “for 1 minute,” for “for 2 minutes,”, “M ethanolamine.” for “M ethanolamine for 7 minutes.”\nAn 8-point, 3-fold serial dilution assay was performed in duplicate for the polypeptides described in Example 1 starting at either 20 nM, 50 nM, or 200 nM.\nas §2, with “Sensorgrams” for “An 8-point, 3-fold serial dilution assay was performed in duplicate for the Fab fusion proteins described in Example 8 starting at 100 nM. Sensorgrams”, “Analyzer software version 3.1.33” for “Analyzer”", "units": {"Kd": "nM"}, "values": [{"binder": "B3", "Kd": 1.94}, {"binder": "B1", "Kd": 0.22}, {"binder": "B2", "Kd": 0.66}]}, {"target": "T1, complement component 3 (C3)", "assay": "SPR, single cycle kinetics, 1:1 Langmuir fit; text says C3 (Cat #A113c) was immobilised, the column's head prints 'Binding to C3b'", "protocol": "C3 binding, VEGF binding, HSA binding, and equilibrium dissociation constant (KD) measurements were determined by Surface Plasmon Resonance (SPR) using the Sierra SPR-23 instrument. C3 protein was obtained from Complement Technology, Inc. (Cat #A113c). VEGF protein was obtained from Sino Biologicals, Inc. HSA protein was obtained from Sigma-Aldrich, Inc. (Cat #A3782). The Fab fusion proteins described in Example 8 were stored each at 1 mg/mL in PBST, pH 7.4.\nas §1, §2", "units": {"Kd": "nM"}, "values": [{"binder": "B4", "Kd": 4.09}, {"binder": "B5", "Kd": 0.13}, {"binder": "B9", "Kd": 0.21}, {"binder": "B6", "Kd": 0.14}, {"binder": "B7", "Kd": 1.42}, {"binder": "B8", "Kd": 1.31}]}]}
